Assay results published in publication PMC9404468.

Assays:
[1] = target: thyroid hormone receptor beta (TRb), His-tagged, from pETSUMO-TRb (UniProt P10828); assay: peptide or protein array
[2] = target: human Hsp90a (heat shock protein 90 alpha), purified full-length (human) (UniProt P07900); assay: peptide or protein array

Row | Substance | EC50 [1] | EC50 [2]
1 | human Hsp90a (heat shock protein 90 alpha), purified full-length (from UniProt P07900 1-732) (natural protein) | 124 nM | –
2 | thyroid hormone receptor beta (TRb), His-tagged, from pETSUMO-TRb (from UniProt P10828 1-461) | – | 1240 nM
